Substrate in series [1]: CC(C)C[C@@H](N)C(=O)O
The experiment in a line: purified protein. As to conditions: 1 mM PMS, 20 mM sodium pyrophosphate, pH 10.0, 25 °C.

Substrate in series [2]: N=C(N)NCCC[C@@H](N)C(=O)O
As to the kind of experiment: purified protein. As to conditions: 1 mM PMS, 20 mM sodium pyrophosphate, pH 10.0, 25 °C.

B1: Pseudomonas aeruginosa D-arginine dehydrogenase (PaDADH) (Pseudomonas aeruginosa PAO1) (protein)
chain: MIEADYLVIGAGIAGASTGYWLSAHGRVVVLEREAQPGYHSTGRSAAHYTVAYGTPQVRALTAASRAFFDNPPAGFCEHPLLSPRPEMVVDFSDDPEELRRQYESGKALVPQMRLLDAEQACSIVPVLRRDKVFGATYDPTGADIDTDALHQGYLRGIRRNQGQVLCNHEALEIRRVDGAWEVRCDAGSYRAAVLVNAAGAWCDAIAGLAGVRPLGLQPKRRSAFIFAPPPGIDCHDWPMLVSLDESFYLKPDAGMLLGSPANADPVEAHDVQPEQLDIATGMYLIEEATTLTIRRPEHTWAGLRSFVADGDLVAGYAANAEGFFWVAAQGGYGIQTSAAMGEASAALIRHQPLPAHLREHGLDEAMLSPRRLSP
As a reminder, the Km is the substrate concentration at which the rate is half of its maximum. Broadly, the kcat is the number of substrate molecules converted per active site and unit of time at saturation. A word on the kcat/Km: it is the second-order rate constant that governs catalysis at low substrate concentration. In the case of B1, in the series “purified protein [1]”, the Michaelis-Menten constant (Km) is on record as 6.6 ± 0.5 mM, the kcat was found to be 73 ± 3 s⁻¹ and the kcat/Km was 11000 ± 880 M⁻¹ s⁻¹. The Km in “purified protein [2]” was found to be 0.033 ± 0.002 mM.

These data come from paper PMC10655190, “Targeted Mutation of a Non-catalytic Gating Residue Increases the Rate of Pseudomonas aeruginosaD-Arginine Dehydrogenase Catalytic Turnover” (Journal of Agricultural and Food Chemistry, 2023).
